Each block holds one sequence with its values, some of them ahead of it.
Key:
HLA-B*44:02 [1] = experiment: IEDB peptide-MHC binding, purified MHC/competitive/radioactivity; filed as Kd, often an IC50 or EC50 that approximates it; ≥ and ≤ were set here for values at or beyond the usual limits of such assays
HLA-B*45:01 = experiment: as above
HLA-B*40:01 [2] = experiment: as above
HLA-B*44:03 = experiment: as above
HLA-B*40:02 = experiment: as above
HLA-B*18:01 = experiment: as above
HLA-A*03:01 [3] = experiment: IEDB peptide-MHC binding, purified MHC/competitive/fluorescence; filed as Kd, often an IC50 or EC50 that approximates it; ≥ and ≤ were set here for values at or beyond the usual limits of such assays
HLA-A*02:01 [4] = experiment: IEDB peptide-MHC binding, purified MHC/competitive/fluorescence; ≥ and ≤ were set here for values at or beyond the usual limits of such assays
HLA-A*24:02 = experiment: as above
HLA-A*68:02 = experiment: IEDB peptide-MHC binding, purified MHC/competitive/radioactivity; filed as Kd, often an IC50 or EC50 that approximates it; ≥ and ≤ were set here for values at or beyond the usual limits of such assays
HLA-A*02:03 = experiment: as above
HLA-B*44:02 [5] = experiment: IEDB peptide-MHC binding, purified MHC/direct/fluorescence; filed as Kd, often an IC50 or EC50 that approximates it; ≥ and ≤ were set here for values at or beyond the usual limits of such assays; details: source organism: Vibrio cholerae
HLA-B*40:01 [6] = experiment: as above; details: source organism: Vibrio cholerae
HLA-A*26:01 = experiment: as above; details: source organism: Vibrio cholerae
HLA-B*08:01 = experiment: as above; details: source organism: Vibrio cholerae
HLA-A*31:01 = experiment: as above; details: source organism: Vibrio cholerae
HLA-A*11:01 = experiment: as above; details: source organism: Vibrio cholerae
HLA-B*58:01 = experiment: as above; details: source organism: Vibrio cholerae
HLA-B*07:02 = experiment: as above; details: source organism: Vibrio cholerae
HLA-A*69:01 = experiment: as above; details: source organism: Vibrio cholerae
HLA-B*27:05 = experiment: as above; details: source organism: Vibrio cholerae
HLA-A*03:01 [7] = experiment: as above; details: source organism: Vibrio cholerae
HLA-A*02:01 [8] = experiment: as above; details: source organism: Vibrio cholerae
HLA-A*24:03 = experiment: as above; details: source organism: Vibrio cholerae
HLA-B*15:01 = experiment: as above; details: source organism: Vibrio cholerae
HLA-A*01:01 = experiment: as above; details: source organism: Vibrio cholerae
HLA-A*02:06 = experiment: IEDB peptide-MHC binding, purified MHC/competitive/radioactivity; filed as Kd, often an IC50 or EC50 that approximates it; ≥ and ≤ were set here for values at or beyond the usual limits of such assays; details: source organism: Dengue virus 2 Jamaica/1409/1983
[9] = source organism: Lymphocytic choriomeningitis virus (strain WE)
[10] = source organism: Zaire ebolavirus
[11] = source organism: Vaccinia virus
[12] = source organism: Dengue virus 4 Philippines/H241/1956
[13] = source organism: SARS coronavirus Tor2
[14] = source organism: Sudan ebolavirus
[15] = source organism: Lassa virus Josiah
[16] = source organism: Mammarenavirus whitewaterense
[17] = source organism: Dengue virus 2 Jamaica/1409/1983
[18] = source organism: Mammarenavirus brazilense

Sequence: KEPVESCPLM
- Kd (HLA-B*44:02 [1]; [9]): 14.3 µM
- Kd (HLA-B*45:01; [9]): ≥ 70 µM
- Kd (HLA-B*40:01 [2]; [9]): 11.8 µM
- Kd (HLA-B*44:03; [9]): ≥ 40.8 µM
- Kd (HLA-B*40:02; [9]): 0.208 µM
- Kd (HLA-B*18:01; [9]): ≥ 34.4 µM

Sequence: KISGSFSPH
- Kd (HLA-A*03:01 [3]; source organism: Cryptosporidium parvum Iowa II): 0.0369 µM

Sequence: KQLQQYAES
- IC50 (HLA-A*02:01 [4]; [10]): ≥ 187 µM
- IC50 (HLA-A*24:02; [10]): 20.8 µM

Sequence: KVYTMDGEY
- Kd (HLA-A*03:01 [3]; source organism: West Nile virus): 0.0376 µM

Sequence: KYNTPCPNC
- IC50 (HLA-A*24:02; [11]): 35.5 µM

Sequence: LTVAWRTATL
- Kd (HLA-A*68:02; source organism: Dengue virus 3 Martinique/1243/1999): 0.0324 µM

Sequence: MVAWRVTMH
- Kd (HLA-A*03:01 [3]; source organism: Toxoplasma gondii): 0.0481 µM

Sequence: NIHTAITQV
- Kd (HLA-A*68:02; [12]): 0.152 µM
- Kd (HLA-A*02:03; [12]): 0.0261 µM

Sequence: PEANMDQESF
- Kd (HLA-B*44:02 [1]; [13]): 7.54 µM
- Kd (HLA-B*45:01; [13]): ≥ 26 µM
- Kd (HLA-B*40:01 [2]; [13]): 4.2 µM
- Kd (HLA-B*44:03; [13]): 10.6 µM
- Kd (HLA-B*40:02; [13]): 10.1 µM
- Kd (HLA-B*18:01; [13]): ≥ 53.2 µM

Sequence: PTLTTPENI
- IC50 (HLA-A*02:01 [4]; [14]): ≥ 269 µM
- IC50 (HLA-A*24:02; [14]): 53.7 µM

Sequence: QLAFFVAGH
- Kd (HLA-A*03:01 [3]; source organism: Yersinia pestis Antiqua): 0.199 µM

Sequence: QVMLLVLCV
- Kd (HLA-A*68:02; source organism: Dengue virus 2 Peru/IQT2913/1996): 0.143 µM

Sequence: REPTDLKQF
- Kd (HLA-B*44:02 [1]; [15]): 1.51 µM
- Kd (HLA-B*45:01; [15]): ≥ 77.7 µM
- Kd (HLA-B*40:01 [2]; [15]): 2.88 µM
- Kd (HLA-B*44:03; [15]): 8.46 µM
- Kd (HLA-B*40:02; [15]): 1 µM
- Kd (HLA-B*18:01; [15]): ≥ 55.4 µM

- Kd (HLA-A*68:02; source organism: Homo sapiens): ≥ 125 µM
Sequence: RLQQELDDL

Sequence: RLSVKTFVH
- Kd (HLA-A*03:01 [3]; source organism: Coxiella burnetii RSA 493): 0.0276 µM

Sequence: RLSVKTFVK
- Kd (HLA-A*03:01 [3]; source organism: Francisella tularensis subsp. tularensis FSC198): 0.0253 µM

Sequence: RYDYANLCQ
- Kd (HLA-B*44:02 [5]): ≥ 20 µM
- Kd (HLA-B*40:01 [6]): ≥ 20 µM
- Kd (HLA-A*26:01): ≥ 20 µM
- Kd (HLA-B*08:01): ≥ 20 µM
- Kd (HLA-A*31:01): ≥ 20 µM
- Kd (HLA-A*11:01): ≥ 20 µM
- Kd (HLA-B*58:01): ≥ 20 µM
- Kd (HLA-B*07:02): ≥ 20 µM
- Kd (HLA-A*69:01): ≥ 20 µM
- Kd (HLA-B*27:05): ≥ 20 µM
- Kd (HLA-A*03:01 [7]): ≥ 20 µM
- Kd (HLA-A*02:01 [8]): ≥ 20 µM
- Kd (HLA-A*24:03): ≥ 20 µM
- Kd (HLA-B*15:01): ≥ 20 µM
- Kd (HLA-A*01:01): ≥ 20 µM

Sequence: SDHLISEIL
- Kd (HLA-B*44:02 [1]; [16]): 9.12 µM
- Kd (HLA-B*45:01; [16]): 1.66 µM
- Kd (HLA-B*40:01 [2]; [16]): 8.52 µM
- Kd (HLA-B*44:03; [16]): ≥ 78.1 µM
- Kd (HLA-B*40:02; [16]): 0.0831 µM
- Kd (HLA-B*18:01; [16]): ≥ 77.5 µM

Sequence: SEFDRDAAM
- Kd (HLA-B*44:02 [1]; [13]): 0.745 µM
- Kd (HLA-B*45:01; [13]): 18.3 µM
- Kd (HLA-B*40:01 [2]; [13]): 0.21 µM
- Kd (HLA-B*44:03; [13]): 0.532 µM
- Kd (HLA-B*40:02; [13]): 1.01 µM
- Kd (HLA-B*18:01; [13]): 2.51 µM

Sequence: SYRNKPSIA
- IC50 (HLA-A*24:02; [11]): 43.8 µM

Sequence: TLATISTSP
- IC50 (HLA-A*02:01 [4]; [10]): 29.7 µM
- IC50 (HLA-A*24:02; [10]): ≥ 88.9 µM

Sequence: TLYDRYLIK
- Kd (HLA-A*03:01 [3]; source organism: Campylobacter lari RM2100): 0.0109 µM

Sequence: TTGRLIWTL
- IC50 (HLA-A*02:01 [4]; [14]): 2 µM
- IC50 (HLA-A*24:02; [14]): 0.309 µM

Sequence: VVIAILTVV
- Kd (HLA-A*68:02; [17]): 0.347 µM
- Kd (HLA-A*02:03; [17]): 0.0338 µM
- Kd (HLA-A*02:06): 0.0136 µM

Sequence: VYKLDISEA
- IC50 (HLA-A*24:02; [10]): 44 µM

Sequence: YEAMYTPHT
- Kd (HLA-B*44:02 [1]; [13]): ≥ 21.8 µM
- Kd (HLA-B*45:01; [13]): 0.149 µM
- Kd (HLA-B*40:01 [2]; [13]): 14.4 µM
- Kd (HLA-B*44:03; [13]): 13 µM
- Kd (HLA-B*40:02; [13]): 0.242 µM
- Kd (HLA-B*18:01; [13]): 2.8 µM

Sequence: YEQQTVNST
- Kd (HLA-B*44:02 [1]; [18]): ≥ 34.1 µM
- Kd (HLA-B*45:01; [18]): 1.21 µM
- Kd (HLA-B*40:01 [2]; [18]): ≥ 54.2 µM
- Kd (HLA-B*44:03; [18]): ≥ 78.1 µM
- Kd (HLA-B*40:02; [18]): 0.0783 µM
- Kd (HLA-B*18:01; [18]): 1.13 µM
